Target: MurAA-His6 (wild-type), UDP-N-acetylglucosamine 1-carboxyvinyl transferase of Enterococcus faecalis (Enterococcus faecalis)
Assay: thermal shift assay

Sequence of MurAA-His6 (wild-type), UDP-N-acetylglucosamine 1-carboxyvinyl transferase of Enterococcus faecalis (Enterococcus faecalis) (Q831A8 whole entry): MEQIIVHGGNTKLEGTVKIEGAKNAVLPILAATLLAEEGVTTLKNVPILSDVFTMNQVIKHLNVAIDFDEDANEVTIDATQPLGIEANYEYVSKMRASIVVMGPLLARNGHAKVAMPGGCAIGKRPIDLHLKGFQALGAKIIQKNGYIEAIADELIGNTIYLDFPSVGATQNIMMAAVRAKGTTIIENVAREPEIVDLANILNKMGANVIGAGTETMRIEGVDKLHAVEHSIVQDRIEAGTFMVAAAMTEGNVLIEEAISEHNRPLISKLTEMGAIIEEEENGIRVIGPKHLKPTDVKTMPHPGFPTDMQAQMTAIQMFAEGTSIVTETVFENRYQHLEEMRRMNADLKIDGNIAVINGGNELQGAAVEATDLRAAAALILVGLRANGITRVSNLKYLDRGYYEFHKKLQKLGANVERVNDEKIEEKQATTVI

B1: IreB (unphosphorylated), substrate of the PASTA kinase IreK of Enterococcus faecalis (natural protein)
chain: MGFTDETVRFDFDDNRKKAISETLETVYRALEEKGYNPINQIVGYLLSGDPAYIPRYQDARNLIRRHERDEIMEELTKYYLANHGIDIK
**Q.** With B1 as the binder, how does the additional shift of the MurAA Tm with IreB read?
**A.** The additional shift of the MurAA Tm with IreB was 16.5 °C.
